Results reported in patent publication US20220041658A1 (PROTAGONIST THERAPEUTICS, published 2022).
Positions of bridges follow the written chain, without caps; N, C: chain ends. Non-standard residues stand in square brackets, D forms with d. Trp(7-Me) = Cc1cccc2c(C[C@H](N)C(=O)O)c[nH]c12; 2Nal = N[C@@H](Cc1ccc2ccccc2c1)C(=O)O; d2Nal = N[C@H](Cc1ccc2ccccc2c1)C(=O)O; AEF = NCCOc1ccc(C[C@H](N)C(=O)O)cc1; Cit = NC(=O)NCCC[C@H](N)C(=O)O; Pen = CC(C)(S)[C@H](N)C(=O)O; αMeK = C[C@](N)(CCCCN)C(=O)O; Dab = NCC[C@H](N)C(=O)O; Aib = CC(C)(N)C(=O)O; βAla = NCCC(=O)O; Sar = CNCC(=O)O

Biological target: T1, interleukin-23 receptor (IL-23R) (human, UniProt Q5VWK5 24-629)
T1 sequence (looked up): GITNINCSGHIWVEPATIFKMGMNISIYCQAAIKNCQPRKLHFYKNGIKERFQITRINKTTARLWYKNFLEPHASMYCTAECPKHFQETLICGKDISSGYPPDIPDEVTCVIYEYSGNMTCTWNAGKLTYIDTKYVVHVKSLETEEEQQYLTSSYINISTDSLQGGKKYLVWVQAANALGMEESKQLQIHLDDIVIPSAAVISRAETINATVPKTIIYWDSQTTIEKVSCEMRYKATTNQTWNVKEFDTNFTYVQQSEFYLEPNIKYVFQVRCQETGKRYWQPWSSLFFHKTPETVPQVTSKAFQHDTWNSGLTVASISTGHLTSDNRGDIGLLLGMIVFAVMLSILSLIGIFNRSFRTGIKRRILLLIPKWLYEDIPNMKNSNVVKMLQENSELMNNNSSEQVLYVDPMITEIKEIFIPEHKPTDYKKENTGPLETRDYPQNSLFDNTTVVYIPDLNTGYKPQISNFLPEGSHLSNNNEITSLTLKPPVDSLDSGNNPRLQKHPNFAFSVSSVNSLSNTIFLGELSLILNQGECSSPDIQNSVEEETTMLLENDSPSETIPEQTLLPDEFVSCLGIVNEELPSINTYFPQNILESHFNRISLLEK
Experiment: cell-based or functional assay

B1: Peptide of SEQ ID NO: 249 (peptide)
peptide: XNTXKXXXXKNX
modifications: Ac-[Pen]-NT-[W(7-Me)]-[Lys(Ac)]-[Pen]-Phe[4-(2-aminoethoxy)]-[2-Nal]-[a-MeLys]-[Lys(Ac)]-N-[Cit]-NH2; Pen-Pen disulfide
pStat3 HTRF IC50: 0.639 nM

B2: Peptide of SEQ ID NO: 338 (peptide)
peptide: XNTXKXXXXKNL
modifications: Ac-[Pen]-[(D)Asn]-T-[W(7-Me)]-[Lys(Ac)]-[Pen]-Phe[4-(2-aminoethoxy)]-[2-Nal]-[a-MeLys]-[Lys(Ac)]-N-[(D)Leu]-NH2; Pen-Pen disulfide
pStat3 HTRF IC50: 41.8 nM

Ac-[Pen]AT[Trp(7-Me)]K(Ac)[Pen][AEF][2Nal][αMeK]K(Ac)N[dL]-NH2 (disulfide 1-6 (inferred)) [Peptide of SEQ ID NO: 328]
pStat3 HTRF IC50: 0.78 nM

Ac-[Pen]NT[Trp(7-Me)][Cit][Pen][AEF][2Nal][αMeK]K(Ac)N[Aib]A-NH2 (disulfide 1-6 (inferred)) [Peptide of SEQ ID NO: 342]
pStat3 HTRF IC50: 0.664 nM

B3: Peptide of SEQ ID NO: 253 (peptide)
peptide: XNTXKXXXXKNP
modifications: Ac-[Pen]-NT-[W(7-Me)]-[Lys(Ac)]-[Pen]-Phe[4-(2-aminoethoxy)]-[2-Nal]-[a-MeLys]-[Lys(Ac)]-N-P-NH2; Pen-Pen disulfide
pStat3 HTRF IC50: 1.44 nM

B4: Peptide of SEQ ID NO: 237 (peptide)
peptide: XQTXQXXXXKNX
modifications: Ac-[Pen]-Q-T-[W(7-Me)]-Q-[Pen]-Phe[4-(2-aminoethoxy)]-[2-Nal]-[a-MeLys]-[Lys(Ac)]-N-[bA]-NH2; Pen-Pen disulfide
pStat3 HTRF IC50: 3.39 nM

Ac-[Pen]GT[Trp(7-Me)]K(Ac)[Pen][AEF][2Nal][αMeK]K(Ac)N[dL]-NH2 (disulfide 1-6 (inferred)) [Peptide of SEQ ID NO: 329]
pStat3 HTRF IC50: 0.77 nM

Ac-[Pen]NT[Trp(7-Me)][Cit][Pen][AEF][2Nal][αMeK]K(Ac)N[Aib][d2Nal]-NH2 (disulfide 1-6 (inferred)) [Peptide of SEQ ID NO: 348]
pStat3 HTRF IC50: 5.02 nM

Ac-[Pen]K(Ac)T[Trp(7-Me)]K(Ac)[Pen][AEF][2Nal][αMeK]K(Ac)N[dL]-NH2 (disulfide 1-6 (inferred)) [Peptide of SEQ ID NO: 330]
pStat3 HTRF IC50: 1.38 nM

B5: Peptide of SEQ ID NO: 233 (peptide)
peptide: XNTXQXXXXKNX
modifications: Ac-[Pen]-NT-[W(2,5,7-tritBu)]-Q-[Pen]-Phe[4-(2-aminoethoxy)]-[2-Nal]-[a-MeLys]-[Lys(Ac)]-N-[bA]-NH2; Pen-Pen disulfide
pStat3 HTRF IC50: > 1 µM

B6: Peptide of SEQ ID NO: 250 (peptide)
peptide: XNTXKXXXXKNV
modifications: Ac-[Pen]-NT-[W(7-Me)]-[Lys(Ac)]-[Pen]-Phe[4-(2-aminoethoxy)]-[2-Nal]-[a-MeLys]-[Lys(Ac)]-N-V-NH2; Pen-Pen disulfide
pStat3 HTRF IC50: 1.82 nM

Ac-[Pen]LT[Trp(7-Me)]K(Ac)[Pen][AEF][2Nal][αMeK]K(Ac)N[dL]-NH2 (disulfide 1-6 (inferred)) [Peptide of SEQ ID NO: 332]
pStat3 HTRF IC50: 1.06 nM

B7: Peptide of SEQ ID NO: 321 (peptide)
peptide: XNTXXXXXXKNL
modifications: Ac-[Pen]-N-T-[W(7-Me)]-[Lys(bAla)]-[Pen]-Phe[4-(2-aminoethoxy)]-[2-Nal]-[a-MeLys]-[Lys(Ac)]-N-[(D)Leu]-NH2; Pen-Pen disulfide
pStat3 HTRF IC50: 1.04 nM

Ac-[Pen][Dab](Ac)T[Trp(7-Me)]K(Ac)[Pen][AEF][2Nal][αMeK]K(Ac)N[dL]-NH2 (disulfide 1-6 (inferred)) [Peptide of SEQ ID NO: 335]
pStat3 HTRF IC50: 0.567 nM

Ac-[Pen]NT[Trp(7-Me)][Cit][Pen][AEF][2Nal][αMeK]K(Ac)N[Sar]-NH2 (disulfide 1-6 (inferred)) [Peptide of SEQ ID NO: 339]
pStat3 HTRF IC50: 6.3 nM

Ac-[Pen]RT[Trp(7-Me)]K(Ac)[Pen][AEF][2Nal][αMeK]K(Ac)N[dL]-NH2 (disulfide 1-6 (inferred)) [Peptide of SEQ ID NO: 336]
pStat3 HTRF IC50: 1.49 nM

B8: Peptide of SEQ ID NO: 318 (peptide)
peptide: XNTXXXXXXKNL
modifications: not fully specified; Ac-[Pen]-N-T-[W(7-Me)]-[Lys(benzyl)]-[Pen]-Phe[4-(2-aminoethoxy)]-[2-Nal]-[a-MeLys]-[Lys(Ac)]-N-[(D)Leu]-NH2; Pen-Pen disulfide
pStat3 HTRF IC50: 1.9 nM

B9: Peptide of SEQ ID NO: 231 (peptide)
peptide: XNTXQXXXXKNX
modifications: Ac-[Pen]-NT-[W(4-Me)]-Q-[Pen]-Phe[4-(2-aminoethoxy)]-[2-Nal]-[a-MeLys]-[Lys(Ac)]-N-[bA]-NH2; Pen-Pen disulfide
pStat3 HTRF IC50: 5.85 nM

B10: Peptide of SEQ ID NO: 211 (peptide)
peptide: XNTXQXXXXKPX
modifications: Ac-[Pen]-NT-[W(7-Me)]-Q-[Pen]-Phe[4-(2-aminoethoxy)]-[2-Nal]-[a-MeLeu]-[Lys(Ac)]-P-[bA]-NH2; Pen-Pen disulfide
pStat3 HTRF IC50: 178 nM

B11: Peptide of SEQ ID NO: 240 (peptide)
peptide: Ac-[Pen][Aib]T[Trp(7-Me)]Q[Pen][AEF][2Nal][αMeK]K(Ac)N[βAla]-NH2
modifications: disulfide 1-6
SMILES: CC(=O)NCCCC[C@H](NC(=O)[C@](C)(CCCCN)NC(=O)[C@H](Cc1ccc2ccccc2c1)NC(=O)[C@H](Cc1ccc(OCCN)cc1)NC(=O)[C@H]1NC(=O)[C@H](CCC(N)=O)NC(=O)[C@H](Cc2c[nH]c3c(C)cccc23)NC(=O)[C@H]([C@@H](C)O)NC(=O)C(C)(C)NC(=O)[C@@H](NC(C)=O)C(C)(C)SSC1(C)C)C(=O)N[C@@H](CC(N)=O)C(=O)NCCC(N)=O
pStat3 HTRF IC50: 17.7 nM

B12: Peptide of SEQ ID NO: 241 (peptide)
peptide: Ac-[Pen]NT[Trp(7-Me)][Aib][Pen][AEF][2Nal][αMeK]K(Ac)N[βAla]-NH2
modifications: disulfide 1-6
SMILES: CC(=O)NCCCC[C@H](NC(=O)[C@](C)(CCCCN)NC(=O)[C@H](Cc1ccc2ccccc2c1)NC(=O)[C@H](Cc1ccc(OCCN)cc1)NC(=O)[C@H]1NC(=O)C(C)(C)NC(=O)[C@H](Cc2c[nH]c3c(C)cccc23)NC(=O)[C@H]([C@@H](C)O)NC(=O)[C@H](CC(N)=O)NC(=O)[C@@H](NC(C)=O)C(C)(C)SSC1(C)C)C(=O)N[C@@H](CC(N)=O)C(=O)NCCC(N)=O
pStat3 HTRF IC50: 12.5 nM

Ac-[Pen]NT[Trp(7-Me)][Cit][Pen][AEF][2Nal][αMeK]K(Ac)N[Aib][dF]-NH2 (disulfide 1-6 (inferred)) [Peptide of SEQ ID NO: 346]
pStat3 HTRF IC50: 0.784 nM
